System: Escherichia coli TOP10
Test: shrunken log2 fold change of peptide-encoding DNA abundance (4.5 h post-induction vs induction); higher = less antimicrobial activity (less host growth inhibition)
Details: time post-induction: 4.5 h; library: site-saturation at positions 5, 18, 19, 20
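Also: peptides expressed intracellularly from a pBAD plasmid library in pooled LB shake-flask culture, induced with 0.3% L-arabinose, DNA abundance read by NGS, three biological replicates, DESeq2 with apeglm shrinkage.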

| Sequence | shrunken log2 fold change |
| --- | --- |
| RRIRSRPPRLPRPRPRPRTFPRP | 0.00214 |
| RRIRGRPPRLPRPRPRPYNRPRP | 0.00858 |
| RRIRMRPPRLPRPRPRPMMAPRP | 1.8 |
| RRIRRRPPRLPRPRPRPHMIPRP | -0.13 |
| RRIRLRPPRLPRPRPRPLWDPRP | 0.466 |
| RRIRYRPPRLPRPRPRPYSCPRP | -0.344 |
| RRIRYRPPRLPRPRPRPNNIPRP | -1.24 |
| RRIRRRPPRLPRPRPRPNKHPRP | 0.117 |
| RRIRVRPPRLPRPRPRPKTRPRP | 0.63 |
| RRIRQRPPRLPRPRPRPRSEPRP | 0.234 |
| RRIRYRPPRLPRPRPRPPKVPRP | -0.149 |
| RRIRMRPPRLPRPRPRPNSFPRP | -0.298 |
| RRIRGRPPRLPRPRPRPAAPPRP | 1.38 |
| RRIRGRPPRLPRPRPRPQFFPRP | -0.0486 |
| RRIRPRPPRLPRPRPRPDIGPRP | -0.0448 |
| RRIRVRPPRLPRPRPRPSFQPRP | -0.22 |
| RRIRFRPPRLPRPRPRPLKPPRP | -0.178 |
| RRIRERPPRLPRPRPRPHHNPRP | -0.817 |
| RRIRVRPPRLPRPRPRPSGKPRP | 0.0575 |
| RRIRNRPPRLPRPRPRPPVEPRP | 0.272 |
| RRIRARPPRLPRPRPRPGPFPRP | 0.231 |
| RRIRYRPPRLPRPRPRPQHLPRP | -0.262 |
| RRIRNRPPRLPRPRPRPKWIPRP | 0.0111 |
| RRIRRRPPRLPRPRPRPNEWPRP | 0.0626 |
| RRIRTRPPRLPRPRPRPSKSPRP | -0.437 |

| Sequence | shrunken log2 fold change |
| --- | --- |
| RRIRLRPPRLPRPRPRPYMFPRP | -0.123 |
| RRIRCRPPRLPRPRPRPFSQPRP | -0.209 |
| RRIRFRPPRLPRPRPRPTALPRP | 0.0145 |
| RRIRFRPPRLPRPRPRPNWRPRP | -0.0764 |
| RRIRDRPPRLPRPRPRPRGTPRP | -0.217 |
| RRIRRRPPRLPRPRPRPPWQPRP | 2.01 |
| RRIRARPPRLPRPRPRPFNVPRP | 0.0338 |
| RRIRMRPPRLPRPRPRPMTIPRP | -0.329 |
| RRIRDRPPRLPRPRPRPLPSPRP | -0.0341 |
| RRIRSRPPRLPRPRPRPCGYPRP | -0.00214 |
| RRIRIRPPRLPRPRPRPMIRPRP | -0.511 |
| RRIRTRPPRLPRPRPRPVLEPRP | 0.179 |
| RRIRSRPPRLPRPRPRPRCCPRP | -0.00537 |
| RRIRSRPPRLPRPRPRPQQWPRP | -0.175 |
| RRIRARPPRLPRPRPRPNMVPRP | -0.175 |
| RRIRTRPPRLPRPRPRPNTWPRP | -0.178 |
| RRIRRRPPRLPRPRPRPQCQPRP | 0.0393 |
| RRIRDRPPRLPRPRPRPERMPRP | 0.216 |
| RRIRLRPPRLPRPRPRPYCSPRP | -0.00936 |
| RRIRNRPPRLPRPRPRPDDNPRP | -0.0156 |
| RRIRIRPPRLPRPRPRPPLSPRP | -0.128 |
| RRIRSRPPRLPRPRPRPCTCPRP | -0.177 |
| RRIRKRPPRLPRPRPRPHMCPRP | -0.066 |
| RRIRDRPPRLPRPRPRPPKLPRP | 0.0369 |
| RRIRTRPPRLPRPRPRPNFSPRP | 0.059 |

| Sequence | shrunken log2 fold change |
| --- | --- |
| RRIRWRPPRLPRPRPRPAKTPRP | 0.0165 |
| RRIRTRPPRLPRPRPRPDKAPRP | -0.0271 |
| RRIRERPPRLPRPRPRPFQHPRP | -0.252 |
| RRIRVRPPRLPRPRPRPPGCPRP | 0.232 |
| RRIRKRPPRLPRPRPRPCCLPRP | -0.0964 |
| RRIRNRPPRLPRPRPRPATIPRP | -0.44 |
| RRIRRRPPRLPRPRPRPGMRPRP | 0.792 |
| RRIRWRPPRLPRPRPRPKMAPRP | 0.859 |
| RRIRSRPPRLPRPRPRPAFEPRP | 0.0595 |
| RRIRYRPPRLPRPRPRPWYVPRP | -1.13 |
| RRIRDRPPRLPRPRPRPGTHPRP | 0.129 |
| RRIRTRPPRLPRPRPRPDDYPRP | -0.111 |
| RRIRLRPPRLPRPRPRPGTEPRP | -0.0405 |
| RRIRPRPPRLPRPRPRPHFLPRP | -0.168 |
| RRIRRRPPRLPRPRPRPEVTPRP | 0.0976 |
| RRIRMRPPRLPRPRPRPFCKPRP | -0.224 |
| RRIRHRPPRLPRPRPRPAQYPRP | -0.0609 |
| RRIRWRPPRLPRPRPRPQYYPRP | -0.0952 |
| RRIRGRPPRLPRPRPRPYCRPRP | -0.237 |
| RRIRWRPPRLPRPRPRPNWNPRP | -0.0303 |
| RRIRVRPPRLPRPRPRPAITPRP | -0.142 |
| RRIRGRPPRLPRPRPRPLGFPRP | 0.755 |
| RRIRQRPPRLPRPRPRPSNKPRP | -0.513 |
| RRIRERPPRLPRPRPRPCLCPRP | -0.134 |
| RRIRCRPPRLPRPRPRPYVPPRP | -0.323 |

| Sequence | shrunken log2 fold change |
| --- | --- |
| RRIRWRPPRLPRPRPRPCPAPRP | -0.0319 |
| RRIRVRPPRLPRPRPRPPCHPRP | -0.451 |
| RRIRSRPPRLPRPRPRPQNCPRP | 0.0871 |
| RRIRLRPPRLPRPRPRPTRDPRP | 0.454 |
| RRIRRRPPRLPRPRPRPSRPPRP | 0.464 |
| RRIRHRPPRLPRPRPRPQCPPRP | -0.211 |
| RRIRGRPPRLPRPRPRPGETPRP | 0.515 |
| RRIRSRPPRLPRPRPRPITFPRP | -0.716 |
| RRIRRRPPRLPRPRPRPSVPPRP | 0.063 |
| RRIRERPPRLPRPRPRPKGWPRP | 0.493 |
| RRIRWRPPRLPRPRPRPYETPRP | -0.181 |
| RRIRPRPPRLPRPRPRPEEEPRP | 0.163 |
| RRIRSRPPRLPRPRPRPQKAPRP | 0.091 |
| RRIRFRPPRLPRPRPRPPLMPRP | 0.154 |
| RRIRLRPPRLPRPRPRPNQYPRP | -0.126 |
| RRIRFRPPRLPRPRPRPQWCPRP | -0.0514 |
| RRIRHRPPRLPRPRPRPKLNPRP | -0.248 |
| RRIRVRPPRLPRPRPRPMNAPRP | 0.154 |
| RRIRLRPPRLPRPRPRPPEVPRP | -0.0157 |
| RRIRRRPPRLPRPRPRPCNTPRP | -0.295 |
| RRIRKRPPRLPRPRPRPKVTPRP | 0.0261 |
| RRIRYRPPRLPRPRPRPTLDPRP | -0.628 |
| RRIRSRPPRLPRPRPRPVPCPRP | -0.226 |
| RRIRRRPPRLPRPRPRPWHWPRP | 0.183 |
| RRIRKRPPRLPRPRPRPDTQPRP | 0.202 |

| Sequence | shrunken log2 fold change |
| --- | --- |
| RRIRERPPRLPRPRPRPWCTPRP | -0.391 |
| RRIRTRPPRLPRPRPRPPYNPRP | -0.252 |
| RRIRVRPPRLPRPRPRPMFCPRP | -0.0375 |
| RRIRMRPPRLPRPRPRPQRSPRP | 0.629 |
| RRIRWRPPRLPRPRPRPQYCPRP | -0.198 |
| RRIRYRPPRLPRPRPRPLMGPRP | -0.0741 |
| RRIRWRPPRLPRPRPRPVGYPRP | 0.0334 |
| RRIRLRPPRLPRPRPRPPNEPRP | -0.0407 |
| RRIRTRPPRLPRPRPRPEPTPRP | 0.347 |
| RRIRARPPRLPRPRPRPANKPRP | 0.0442 |
| RRIRGRPPRLPRPRPRPCKQPRP | 0.0431 |
| RRIRVRPPRLPRPRPRPNKAPRP | 0.13 |
| RRIRTRPPRLPRPRPRPNPDPRP | -0.0402 |
| RRIRERPPRLPRPRPRPWNIPRP | -0.308 |
| RRIRGRPPRLPRPRPRPHVNPRP | 0.295 |
| RRIRQRPPRLPRPRPRPHAKPRP | 0.12 |
| RRIRCRPPRLPRPRPRPPHAPRP | 1.04 |
| RRIRVRPPRLPRPRPRPQEGPRP | -0.15 |
| RRIRHRPPRLPRPRPRPCARPRP | -0.0479 |
| RRIRTRPPRLPRPRPRPNDNPRP | -0.739 |
| RRIRRRPPRLPRPRPRPEQQPRP | 0.22 |
| RRIRARPPRLPRPRPRPLFCPRP | 0.00332 |
| RRIRLRPPRLPRPRPRPPYSPRP | -0.125 |
| RRIRTRPPRLPRPRPRPRVHPRP | 0.0778 |
| RRIRFRPPRLPRPRPRPCVSPRP | -0.0323 |
